Data on 3 molecules can be found in US20040019187A1 (published 2004).

Assay [1] addresses HLA-DR on the surface of LG-2 cells (human B-lymphoblastoid cell line) (human). In words: cell-based or functional assay.
For assay [2], the target named is T1, HLA-DR (DRA*0101/DRB1*0401) on the surface of PRIESS cells (human, UniProt P01903 26-254; P01911 30-266).
T1 MHC II alpha: not shown
T1 MHC II beta: not shown
Kind of assay: cell-based or functional assay.

Changes are numbered by the printed parent chain.

B1: MS-GPC-8-27-41 Fab (Fab, V domains shown)
VH: QVQLKESGPALVKPTQTLTLTCTFSGFSLSTSGVGVGWIRQPPGKALEWLALIDWDDDKYYSTSLKTRLTISKDTSKNQVVLTMTNMDPVDTATYYCARSPRYRGAFDYWGQGTLVTVSS
VL: DIVLTQPPSVSGAPGQRVTISCSGSESNIGNNYVQWYQQLPGTAPKLLIYDNNQRPSGVPDRFSGSKSGTSASLAITGLQSEDEADYYCQSYDMNVHVFGGGTKLTVLG
For B1, the EC50 of cell killing (nM) for bivalent agent; LG2 cells; Fab cross-linked with anti-FLAG M2 in assay [1] was found to be 7.2 nM. Moreover, in assay [2], the “EC50 of cell killing (nM) for bivalent agent; PRIESS cells; Fab cross-linked with anti-FLAG M2” value was found to be 7.7 nM.

B2: MS-GPC-8-6-2 Fab (Fab, V domains shown)
VH: B1 VH
VL: B1 VL with N31S, Q35H, M94Y, N95D, V96H, H97Y
Regarding B2, in assay [2], the “EC50 of cell killing (nM) for bivalent agent; PRIESS cells; Fab cross-linked with anti-FLAG M2” value worked out at 8 nM.

B3: MS-GPC-8-17 Fab (Fab, V domains shown)
VH: B1 VH
VL: B1 VL with E26S, N31S, Q35S, M94F, N95S, H97Y
As for B3, the “EC50 of cell killing (nM) for bivalent agent; PRIESS cells; Fab cross-linked with anti-FLAG M2” value in assay [2] is 16 nM.
